The source of these data is article PMC2063623.

The assay has as its target pCMV-BD-DLC-1 (human) (UniProt Q96QB1). As to the kind of experiment: two-hybrid.
Chain of UniProt Q96QB1 (Q96QB1 whole entry): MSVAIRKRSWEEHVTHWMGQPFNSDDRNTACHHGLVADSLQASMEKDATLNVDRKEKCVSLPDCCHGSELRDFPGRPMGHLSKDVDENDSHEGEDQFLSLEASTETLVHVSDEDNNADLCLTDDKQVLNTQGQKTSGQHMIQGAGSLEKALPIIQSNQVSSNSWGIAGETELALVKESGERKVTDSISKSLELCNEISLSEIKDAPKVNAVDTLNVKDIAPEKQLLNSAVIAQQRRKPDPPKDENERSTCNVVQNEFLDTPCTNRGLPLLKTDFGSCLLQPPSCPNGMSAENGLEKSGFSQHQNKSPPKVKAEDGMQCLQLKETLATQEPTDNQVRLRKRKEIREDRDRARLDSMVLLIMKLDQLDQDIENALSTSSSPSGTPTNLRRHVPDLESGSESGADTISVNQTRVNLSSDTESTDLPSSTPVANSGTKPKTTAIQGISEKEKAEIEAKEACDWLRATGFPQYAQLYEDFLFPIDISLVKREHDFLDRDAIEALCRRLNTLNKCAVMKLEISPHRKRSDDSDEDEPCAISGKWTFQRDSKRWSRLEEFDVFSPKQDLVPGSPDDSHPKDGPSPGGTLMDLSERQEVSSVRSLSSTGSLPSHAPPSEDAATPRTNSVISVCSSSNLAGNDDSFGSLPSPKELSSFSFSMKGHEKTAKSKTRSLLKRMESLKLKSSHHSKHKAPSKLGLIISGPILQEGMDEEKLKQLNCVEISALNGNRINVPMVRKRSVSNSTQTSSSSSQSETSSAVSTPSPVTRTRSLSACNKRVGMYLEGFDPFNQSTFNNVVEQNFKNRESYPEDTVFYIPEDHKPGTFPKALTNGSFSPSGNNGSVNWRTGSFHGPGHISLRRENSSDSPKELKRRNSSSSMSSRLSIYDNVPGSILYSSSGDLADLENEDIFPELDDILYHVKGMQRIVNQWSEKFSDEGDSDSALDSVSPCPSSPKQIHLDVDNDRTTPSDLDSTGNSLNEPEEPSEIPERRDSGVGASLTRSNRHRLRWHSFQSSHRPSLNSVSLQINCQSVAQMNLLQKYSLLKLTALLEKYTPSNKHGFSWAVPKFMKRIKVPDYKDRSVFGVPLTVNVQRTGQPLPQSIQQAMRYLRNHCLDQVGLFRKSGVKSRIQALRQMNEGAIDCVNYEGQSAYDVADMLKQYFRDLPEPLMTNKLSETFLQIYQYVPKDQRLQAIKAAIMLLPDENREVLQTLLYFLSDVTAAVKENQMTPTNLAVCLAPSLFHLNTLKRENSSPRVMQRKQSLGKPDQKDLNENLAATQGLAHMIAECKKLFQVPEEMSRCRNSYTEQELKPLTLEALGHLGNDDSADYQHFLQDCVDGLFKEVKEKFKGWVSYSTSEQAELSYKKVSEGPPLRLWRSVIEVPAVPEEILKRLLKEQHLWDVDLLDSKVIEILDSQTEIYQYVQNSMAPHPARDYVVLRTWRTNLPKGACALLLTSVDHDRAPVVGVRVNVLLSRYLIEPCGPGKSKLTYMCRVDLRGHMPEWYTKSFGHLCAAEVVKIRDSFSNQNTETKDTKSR

Turning to “pCMV-AD-cten (from UniProt Q8IZW8 1-715) (natural protein)”, the fold enhancement of luciferase activity is 4 fold.
